We go through two substances from publication PMC3325936.

For assay [1], the target named is GST:Anillin (608–940) (human) (UniProt Q9NQW6). The assay can be described thus: pull-down; lysates of transfected HEK-293 cells diluted by 0.5-fold, 0.25-fold or 0.05-fold, pulled down with 200 nM GST-tagged AHD; western blot for Myc, % bound protein. (In general: A western blot detects proteins with antibodies after separation by electrophoresis.)
The target is the same in assay [2]. Description: pull-down; purified MBP- or GST-tagged anillin fragments (200 nM) as bait; lysates of transfected HEK-293 cells; 50 mM Tris pH7.6, 150 mM NaCl, 5 mM MgCl2, 0.5% Triton X-100, 1 mM DTT, 4°C; western blot for Myc.

UniProt Q9NQW6, sequence (Q9NQW6 645-977): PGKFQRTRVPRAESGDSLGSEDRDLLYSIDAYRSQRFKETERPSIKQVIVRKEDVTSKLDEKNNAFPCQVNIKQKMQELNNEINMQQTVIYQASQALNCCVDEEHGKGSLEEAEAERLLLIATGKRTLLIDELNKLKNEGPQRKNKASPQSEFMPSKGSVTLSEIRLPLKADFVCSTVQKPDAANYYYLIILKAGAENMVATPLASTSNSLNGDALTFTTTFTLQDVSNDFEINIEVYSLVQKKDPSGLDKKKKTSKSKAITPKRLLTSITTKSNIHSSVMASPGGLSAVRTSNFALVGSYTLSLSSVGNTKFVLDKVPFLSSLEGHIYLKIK

With Myc:Ect2 (421–883) (domain or fragment), in assay [1], the percent of protein bound at the lowest dilution was found to be 38%.

For the substance “Myc:Ect2 (421–883; D668G) (domain or fragment)”, the fold change of the amount pulled down against wild-type Ect2 (C-term) in assay [2] was determined as 0.5 fold lower.
